Measurements from patent US10919937 (Bicycle, dated 2021).
Values joined by “and” are separate entries in the source; they are usually repeats but may differ in a detail not shown here. Identical values can stand only once. *1 amine or outer side, *2 acyl side, *3 side chain or, on linkers, in order; H or OH if unused. Bridges are numbered along the chain shown (N, C = ends). Primed or numbered codes have the meaning given here. Where no end group is shown, it is not given here. [ ]: non-standard residue; d: D form. MSR‑C = 1-[4-[4-[4,6-bis[4-[1-(2-chloroacetyl)-4-piperidyl]piperazin-1-yl]-1,3,5-triazin-2-yl]piperazin-1-yl]-1-piperidyl]-2-chloro-ethanone, O=C(C[*:1])N1CCC(N2CCN(c3nc(N4CCN(C5CCN(C(=O)C[*:2])CC5)CC4)nc(N4CCN(C5CCN(C(=O)C[*:3])CC5)CC4)n3)CC2)CC1; MSR‑F = 1-[4-[4-[4,6-bis[4-[4-(2-chloroacetyl)piperazin-1-yl]phenyl]-1,3,5-triazin-2-yl]phenyl]piperazin-1-yl]-2-chloro-ethanone, O=C(C[*:1])N1CCN(c2ccc(-c3nc(-c4ccc(N5CCN(C(=O)C[*:2])CC5)cc4)nc(-c4ccc(N5CCN(C(=O)C[*:3])CC5)cc4)n3)cc2)CC1; MSR‑B = molecular scaffold reagent B, 2,4,6-tris[4-(bromomethyl)phenyl]-1,3,5-triazine, c1cc(-c2nc(-c3ccc(C[*:2])cc3)nc(-c3ccc(C[*:3])cc3)n2)ccc1C[*:1]; MSR‑B(3) = molecular scaffold reagent 2,4,6-tris[4-(bromomethyl)phenyl]-1,3,5-triazine, c1cc(-c2nc(-c3ccc(C[*:2])cc3)nc(-c3ccc(C[*:3])cc3)n2)ccc1C[*:1]; MSR‑G = scaffold reagent with three vinyl sulfonyl Michael acceptors (C9H15N3O6S3), O=S(=O)(CC[*:1])N1CN(S(=O)(=O)CC[*:2])CN(S(=O)(=O)CC[*:3])C1; MSR‑H = 1-[4-(bromomethyl)phenyl]-N,N-bis[[4-(bromomethyl)phenyl]methyl]methanamine, c1cc(C[*:1])ccc1CN(Cc1ccc(C[*:2])cc1)Cc1ccc(C[*:3])cc1; MSR‑B″ = 2,4,6-tris[4-(bromomethyl)phenyl]-1,3,5-triazine, c1cc(-c2nc(-c3ccc(C[*:2])cc3)nc(-c3ccc(C[*:3])cc3)n2)ccc1C[*:1]; MSR‑E = scaffold reagent with three bromomethyl groups (C27H24Br3N3O3); 1Nal = N[C@@H](Cc1cccc2ccccc12)C(=O)O; Tle = CC(C)(C)[C@H](N)C(=O)O; MSR‑D = not defined here

Experiments:
MT1-MMP hemopexin domain = target: T1, MT1-MMP hemopexin domain (UniProt P50281 319-511); experiment: MT1-MMP direct binding fluorescence polarization (as titled), n = 2
T1 construct: domain: hemopexin domain; also called MMP14; membrane type 1 metalloprotease
Experimental: Example 5: Dissociation Rate Constant Determination of Bicyclic Binders to MT1-MMP Direct Binding Fluorescence Polarization (Anisotropy) Assays Direct Binding Fluorescence Polarization or Anisotropy Assays are performed by titrating a constant concentration of fluorescent tracer (here, the fluoresceinated bicyclic peptide to be studied) with its binding partner (here, the MT1-MMP hemopexin domain). As the concentration of binding partner increases during the titration, the polarization signal changes in proportion to the fraction of bound and unbound material. This allows determination of […] (K_d) quantitatively. Assay data can be fit using standard ligand binding equations.
Typically, concentrations of the tracer are ideally well below the K_d of the tracer:titrant pair, and concentrations chosen are usually at ~1 nM or less. The titrant (binding partner) concentration is varied from 0.1 nM up to typically 5 μM. The range is chosen such that the maximum change in fluorescent polarization can be observed. Buffers employed are phosphate buffered saline in the presence of 0.01% Tween. Experiments were run in black 384 well low-bind/low volume plates (Corning 3820), and the fluorescent polarization signal was measured using a BMG Pherastar FS plate reader. Fluorescent tracers referred to in the text are bicyclic peptides that have been fluoresceinated using 5,6-carboxyfluorescein. Fluoresceination may be performed on the N-terminal amino group of the peptide, which is separated from the bicycle core sequence by a sarcosine spacer (usually Sar5). This can be done during Fmoc solid phase synthesis or post-synthetically (after cyclization with the molecular scaffold reagent and purification) if the N-terminal amino group is unique to the peptide. Fluoresceination can also be performed on the C-terminus, usually on a Lysine introduced as the first C-terminal residue, which is then separated from the bicycle core sequence by a sarcosine spacer (usually Sar6). Thus, N-terminal tracers can have a molecular format described as Fluo-Gly-Sar5-A(Bicycle-CoreSequence), and (BicycleCoreSequence)-A-Sar6-K (Fluo) for a C-terminally fluoresceinated construct.

EphA2 = target: T2, EphA2 (UniProt P29317 25-534, limits assumed, biotinylated with EZ-Link Sulfo-NHS-LC-Biotin (sites not given)); experiment: SPR (Biacore), biotinylated EphA2 on streptavidin, peptide as analyte, n = 2
T2 construct: Fc-tagged proteins are also mentioned; also called ephrin type-A receptor 2; biotinylated EphA2
T2 sequence (P29317 25-534 limits assumed): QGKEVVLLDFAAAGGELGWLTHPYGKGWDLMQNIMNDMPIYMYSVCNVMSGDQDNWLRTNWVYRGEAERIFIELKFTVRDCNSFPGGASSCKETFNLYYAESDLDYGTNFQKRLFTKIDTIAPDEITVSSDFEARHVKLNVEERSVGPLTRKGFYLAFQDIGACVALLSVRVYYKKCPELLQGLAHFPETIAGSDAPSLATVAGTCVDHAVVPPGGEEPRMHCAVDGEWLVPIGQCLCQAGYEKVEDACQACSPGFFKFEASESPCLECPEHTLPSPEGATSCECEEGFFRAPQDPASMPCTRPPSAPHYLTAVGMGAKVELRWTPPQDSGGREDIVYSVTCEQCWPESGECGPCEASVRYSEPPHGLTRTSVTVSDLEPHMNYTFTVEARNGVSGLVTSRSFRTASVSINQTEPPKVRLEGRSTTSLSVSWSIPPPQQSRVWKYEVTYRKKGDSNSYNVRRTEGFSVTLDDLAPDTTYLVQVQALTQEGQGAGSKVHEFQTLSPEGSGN
Experimental: SPR Measurements: Non-Fc fusion proteins were biotinylated with EZ-Link™ Sulfo-NHS-LC-Biotin for 1 hour in 4 mM sodium acetate, 100 mM NaCl, pH 5.4 with a 3× molar excess of biotin over protein. The degree of labelling was determined using a Fluorescence Biotin Quantification-Kit (Thermo) after dialysis of the reaction mixture into PBS. For analysis of peptide binding, a Biacore T200 10 instrument was used utilising a XanTec CMD500D chip. Streptavidin was immobilized on the chip using standard amine-coupling chemistry at 25° C. with HBS—N (10 mM HEPES, 0.15 M NaCl, pH 7.4) as the running buffer. Briefly, the carboxymethyl dextran surface was activated with a 7 min injection of a 1:1 ratio of 0.4 M 1-ethyl-3-(3-dimethylaminopropyl) carbodiimide hydrochloride (EDC)/0.1 M N-hydroxy succinimide (NHS) at a flow rate of 10 μl/min. For capture of streptavidin, the protein was diluted to 0.2 mg/ml in 10 mM sodium acetate (pH 4.5) and captured by injecting 120 μl onto the activated chip surface. Residual activated groups were blocked with a 7 min injection of 1 M ethanolamine (pH 8.5):HBS—N (1:1). Buffer was changed to PBS/0.05% Tween 20 and biotinylated EphA2 was captured to a level of 500-1500 RU using a dilution of protein to 0.2 μM in buffer. A dilution series of the peptides was prepared in this buffer with a final DMSO concentration of 0.5% with a top peptide concentration was 50 or 100 nM and 6 further 2-fold dilutions. The SPR analysis was run at 25° C. at a flow rate of […] with 60 seconds association and 900-1200 seconds dissociation. Data were corrected for DMSO excluded volume effects. All data were double-referenced for blank injections and reference surface using standard processing procedures and data processing and kinetic fitting were performed using Scrubber software, version 2.0c (BioLogic Software).
Data were fitted using simple 1:1 binding model allowing for mass transport effects where appropriate for binding of Bicycle Drug Conjugates, a Biacore 3000 instrument was used. For biotinylated proteins immobilisation levels were 1500 RU and the top concentration was 100 nM. Otherwise the method was the same as described above using either the CMD500D or a CM5 chip (GE Healthcare).

[1] = target: human carbonic anhydrase IX (human, UniProt Q16790 38-414); experiment: competition fluorescence polarization, tracer SEQ ID NO: 11, n = 2

Row | Binder | Ki (MT1-MMP hemopexin domain) | Kd (EphA2) [nM] | other results
1 | AC[dA]NE[1Nal][dA]CEDFYD[Tle]C (linker 2-8-15 via MSR‑F, also called 1-94) [Compound I-94] | < 500 nM |  | 
2 | AC[dA]NE[1Nal][dA]CEDFYD[Tle]C (linker 2-8-15 via MSR‑D; not fully specified; reading uncertain, also called 1-92) [Compound I-92] | ≥ 500 nM and < 1000 nM |  | 
3 | AC[dA]NE[1Nal][dA]CEDFYD[Tle]C (linker 2-8-15 via MSR‑H, also called 1-96) [Compound I-96] | < 500 nM |  | 
4 | AC[dA]NE[1Nal][dA]CEDFYD[Tle]C (linker 2-8-15 via MSR‑C, also called 1-91) [Compound I-91] | < 500 nM |  | 
5 | AC[dA]NE[1Nal][dA]CEDFYD[Tle]C (linker 2-8-15 via MSR‑E, also called 1-93) [Compound I-93] | < 500 nM |  | 
6 | ADVHCPWGPFWCPVNRPGCA (linker 5-12-19 via MSR‑C; also: a note names MSR-B as the scaffold) [Compound I-101] |  | < 500 | 
7 | ADVHCPWGPFWCPVNRPGCA (linker 5-12-19 via MSR‑F; not fully specified) [Compound I-104] |  | < 500 | 
8 | YTECWVDGWVPY (also: cyclised via a tyrosine linkage to an unnamed scaffold, places not given here, also called 1-109) [Compound I-109] |  |  | Ki [1]: ≥ 500 nM and < 1000 nM
9 | ADVHCPWGPFWCPVNRPGCA (linker 5-12-19 via MSR‑G; not fully specified) [Compound I-105] |  | < 500 | 
10 | ADVHCPWGPFWCPVNRPGCA (linker 5-12-19 via MSR‑B″) [Compound I-100] |  | < 500 | 
11 | AC[dA]NE[1Nal][dA]CEDFYD[Tle]C (linker 2-8-15 via MSR‑B, also called 1-90) [Compound I-90] | < 500 nM |  | 
12 | CTECWVDGWVPC (linker 1-4-12 via MSR‑B(3) (inferred), also called 1-98) [Compound I-98] |  |  | Ki [1]: < 500 nM
13 | CTEYWVDGWVPC (also: cyclised via a tyrosine linkage to an unnamed scaffold, places not given here, also called 1-108) [Compound I-108] |  |  | Ki [1]: < 500 nM
14 | ADVHCPWGPFWCPVNRPGCA (linker 5-12-19 via MSR‑H; not fully specified) [Compound I-106] |  | < 500 | 
15 | AC[dA]NE[1Nal][dA]CEDFYD[Tle]C (linker 2-8-15 via MSR‑G, also called 1-95) [Compound I-95] | ≥ 500 nM and < 1000 nM |  | 
